Experimental data reported in paper PMC11445239.
Several values for one entry are separate records, joined by “and”; a condition that tells them apart may be missing. Identical values can stand only once. Values belong to the substance of their own block, whether it stands above or below them.

Experiments:
[1] = target: activated (Caspase 11-cleaved) mGSDMD-C39A-C57A-mEGFP (mouse); test: single-molecule TIRF imaging with intensity-based stoichiometry analysis; preformed supported lipid bilayer (Egg PC:PI(4,5)P2 99:1 mol %) on glass incubated with 0.5, 1 or 2 nM protein (pre-cleaved WT or mutants, or full-length at 2 nM) for 1 h, washed 15 times with SLB buffer
[2] = target: activated (Caspase 11-cleaved) mGSDMD-C192A-mEGFP (mouse); test: as above
[3] = target: activated (Caspase 11-cleaved) mGSDMD-mEGFP, mGSDMD(NTD)-mEGFP (mouse); test: single-molecule TIRF imaging with intensity-based stoichiometry analysis; 2 nM mGSDMD-mEGFP with 20 nM Caspase 11 incubated with LUVs (Egg PC:PI(4,5)P2 99:1 mol %) for 1 h (same pattern at 5 and 2 min and after H2O2), proteoliposomes then fused into a supported lipid bilayer on glass; SLB buffer 150 mM NaCl, 10 mM Hepes pH 7.4
[4] = target: activated (Caspase 11-cleaved) mGSDMD-mEGFP, mGSDMD(NTD)-mEGFP (mouse); test: single-molecule TIRF imaging with intensity-based stoichiometry analysis; preformed supported lipid bilayer (Egg PC:PI(4,5)P2 99:1 mol %) on glass incubated with 0.5, 1 or 2 nM protein (pre-cleaved WT or mutants, or full-length at 2 nM) for 1 h, washed 15 times with SLB buffer
[5] = target: activated (Caspase 11-cleaved) mGSDMD-mEGFP, mGSDMD(NTD)-mEGFP (mouse); test: single-molecule TIRF imaging with intensity-based stoichiometry analysis; preformed supported lipid bilayer of 100% Egg PC (no PI(4,5)P2) incubated with 2 nM active mGSDMD-mEGFP for 1 h, washed

stoichiometry N [1]: 2 and 3 and 4
Substance: activated (Caspase 11-cleaved) mGSDMD-C39A-C57A-mEGFP (domain or fragment)

stoichiometry N [2]: 3 and 2
Substance: activated (Caspase 11-cleaved) mGSDMD-C192A-mEGFP (domain or fragment)

stoichiometry N [3]: 2 and 3
stoichiometry N [4]: 5 and 6 and 9
stoichiometry N [5]: 2
Substance: activated (Caspase 11-cleaved) mGSDMD-mEGFP, mGSDMD(NTD)-mEGFP (domain or fragment)
